Assay results reported in US20240360223A1 (DRAGONFLY THERAPEUTICS, published 2024).
Residue numbers refer to the chain shown, from its start. Values joined by “and” are separate entries in the source; they are usually repeats but may differ in a detail not shown here. Identical values can stand only once.

What was measured:
[1] = target: T1, human NKG2D (recombinant mFc-tagged dimer) (human, UniProt P26718 78-216); test: SPR, kinetics fit
T1 construct: also called hNKG2D
T1 sequence (looked up): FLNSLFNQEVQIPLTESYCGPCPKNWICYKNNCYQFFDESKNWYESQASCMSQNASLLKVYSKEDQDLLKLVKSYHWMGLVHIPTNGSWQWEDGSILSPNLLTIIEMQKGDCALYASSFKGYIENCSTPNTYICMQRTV
Excerpt: (§1) NKG2D is a native dimer, therefore recombinant mFc-tagged NKG2D dimer was used for this experiment. Two different fits were utilized to obtain the equilibrium affinity data: steady state affinity fit and kinetic fit.

[2] = target: T2, cynomolgus NKG2D (recombinant mFc-tagged dimer) (cynomolgus, UniProt P61252 78-216); test: SPR, 1:1 kinetic fit
T2 construct: also called cyno NKG2D
T2 sequence (looked up): T1 sequence (looked up) with D38N, T128I
Excerpt: as §1

[3] = target: T2, cynomolgus NKG2D (recombinant …); test: SPR, steady state fit
Excerpt: Two different fits were utilized to obtain the equilibrium affinity data: steady state affinity fit and kinetic fit.

[4] = target: T3, cynomolgus monkey BAFF-R expressed on cells (cynomolgus monkey); test: flow cytometry, cynomolgus BAFF-R CHO cells
T3 construct: whole, on cells; also called cBAFF-R; cynoBAFF-R
Excerpt: Isogenic cell lines overexpressing human and cynomolgus BAFF-R on the backbone of CHO cell line were designed.

[5] = target: T4, cynomolgus FcRn (cynomolgus, UniProt Q8SPV9 24-297; Q8SPW0 21-119); test: SPR, pH 6.0, steady state; pH 6.0; second replicate
T4 construct: also called Cyno FcRn
T4 sequence (Q8SPV9 24-297 limits assumed, chain 1 of 2): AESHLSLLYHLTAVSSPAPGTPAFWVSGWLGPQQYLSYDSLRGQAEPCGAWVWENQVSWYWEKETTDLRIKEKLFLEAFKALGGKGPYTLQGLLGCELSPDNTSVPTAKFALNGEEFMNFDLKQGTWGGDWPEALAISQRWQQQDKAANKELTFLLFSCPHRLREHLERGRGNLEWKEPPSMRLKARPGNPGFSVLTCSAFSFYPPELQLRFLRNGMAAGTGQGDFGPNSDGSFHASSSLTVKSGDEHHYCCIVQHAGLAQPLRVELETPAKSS
T4 sequence (Q8SPW0 21-119 limits assumed, chain 2 of 2): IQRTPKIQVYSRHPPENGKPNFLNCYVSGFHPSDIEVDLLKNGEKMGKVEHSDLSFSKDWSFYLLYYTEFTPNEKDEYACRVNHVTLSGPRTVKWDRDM

B1: AB1424/AB1612 F3′ TriNKET (bispecific antibody, human IgG1, kappa)
chain: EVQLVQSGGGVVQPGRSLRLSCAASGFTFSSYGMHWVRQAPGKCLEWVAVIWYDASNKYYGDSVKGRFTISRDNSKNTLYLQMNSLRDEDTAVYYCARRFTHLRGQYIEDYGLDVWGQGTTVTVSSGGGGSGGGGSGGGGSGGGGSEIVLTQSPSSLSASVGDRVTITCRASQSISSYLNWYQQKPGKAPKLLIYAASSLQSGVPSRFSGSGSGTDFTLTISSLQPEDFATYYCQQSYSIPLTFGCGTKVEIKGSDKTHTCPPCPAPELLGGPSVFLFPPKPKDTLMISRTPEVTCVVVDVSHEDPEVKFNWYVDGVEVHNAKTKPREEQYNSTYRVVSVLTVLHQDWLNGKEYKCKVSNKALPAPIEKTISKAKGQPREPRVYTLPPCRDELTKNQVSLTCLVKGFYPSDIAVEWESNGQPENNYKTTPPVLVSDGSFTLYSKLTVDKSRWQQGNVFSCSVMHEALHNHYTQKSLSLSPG
heavy: EVQLVESGGGLVKPGGSLRLSCAASGFTFSSYSMNWVRQAPGKGLEWVSSISSSSSYIYYADSVKGRFTISRDNAKNSLYLQMNSLRAEDTAVYYCARGAPIGAAAGWFDPWGQGTLVTVSSASTKGPSVFPLAPSSKSTSGGTAALGCLVKDYFPEPVTVSWNSGALTSGVHTFPAVLQSSGLYSLSSVVTVPSSSLGTQTYICNVNHKPSNTKVDKKVEPKSCDKTHTCPPCPAPELLGGPSVFLFPPKPKDTLMISRTPEVTCVVVDVSHEDPEVKFNWYVDGVEVHNAKTKPREEQYNSTYRVVSVLTVLHQDWLNGKEYKCKVSNKALPAPIEKTISKAKGQPREPQVCTLPPSRDELTENQVSLTCLVKGFYPSDIAVEWESNGQPENNYKTTPPVLDSDGSFFLYSWLTVDKSRWQQGNVFSCSVMHEALHNHYTQKSLSLSPG
light: DIQMTQSPSSVSASVGDRVTITCRASQGISSWLAWYQQKPGKAPKLLIYAASSLQSGVPSRFSGSGSGTDFTLTISSLQPEDFATYYCQQGVSFPRTFGGGTKVEIKRTVAAPSVFIFPPSDEQLKSGTASVVCLLNNFYPREAKVQWKVDNALQSGNSQESVTEQDSKDSTYSLSSTLTLSKADYEKHKVYACEVTHQGLSSPVTKSFNRGEC
notes: Chain S: anti-BAFF-R scFv-CH2-CH3; chain H: anti-NKG2D VH-CH1-CH2-CH3; chain L: anti-NKG2D VL-CL; also called AB1612-002
**Q.** With B1 as the binder, how does the Kd [1] read?
**A.** 439 nM and 453 nM and 466 nM and 465 nM

**Q.** What about the Kd [2] of the same binder?
**A.** 498 nM and 516 nM and 528 nM and 525 nM

**Q.** And the Kd [3]?
**A.** 618 nM and 630 nM and 589 nM and 600 nM

**Q.** And the EC50 [4]?
**A.** 0.9 nM

**Q.** And the “Max FOB” value [4]?
**A.** 141 fold over background

**Q.** What about the Kd [5] of the same binder?
**A.** 1000 nM
